{"source": "paper PMC12440826", "about": "“Shigella flexneri evades LPS ubiquitylation through IpaH1.4-mediated degradation of RNF213” (Nature Structural & Molecular Biology, 2025)", "molecular_target": "T1, 2×Strep–RNF213 (WT human RNF213) (human, UniProt Q63HN8 1-5207)", "T1 construct": "RNF213, human E3 ubiquitin ligase; plasmid pOP806_pACEBac1 2×Strep–RNF213; the N terminus (residues 1–398) is not resolved in the maps; source: Sf9, purified (StrepTrap HP)", "T1 sequence (Q63HN8 whole entry, the tested form may be a part)": "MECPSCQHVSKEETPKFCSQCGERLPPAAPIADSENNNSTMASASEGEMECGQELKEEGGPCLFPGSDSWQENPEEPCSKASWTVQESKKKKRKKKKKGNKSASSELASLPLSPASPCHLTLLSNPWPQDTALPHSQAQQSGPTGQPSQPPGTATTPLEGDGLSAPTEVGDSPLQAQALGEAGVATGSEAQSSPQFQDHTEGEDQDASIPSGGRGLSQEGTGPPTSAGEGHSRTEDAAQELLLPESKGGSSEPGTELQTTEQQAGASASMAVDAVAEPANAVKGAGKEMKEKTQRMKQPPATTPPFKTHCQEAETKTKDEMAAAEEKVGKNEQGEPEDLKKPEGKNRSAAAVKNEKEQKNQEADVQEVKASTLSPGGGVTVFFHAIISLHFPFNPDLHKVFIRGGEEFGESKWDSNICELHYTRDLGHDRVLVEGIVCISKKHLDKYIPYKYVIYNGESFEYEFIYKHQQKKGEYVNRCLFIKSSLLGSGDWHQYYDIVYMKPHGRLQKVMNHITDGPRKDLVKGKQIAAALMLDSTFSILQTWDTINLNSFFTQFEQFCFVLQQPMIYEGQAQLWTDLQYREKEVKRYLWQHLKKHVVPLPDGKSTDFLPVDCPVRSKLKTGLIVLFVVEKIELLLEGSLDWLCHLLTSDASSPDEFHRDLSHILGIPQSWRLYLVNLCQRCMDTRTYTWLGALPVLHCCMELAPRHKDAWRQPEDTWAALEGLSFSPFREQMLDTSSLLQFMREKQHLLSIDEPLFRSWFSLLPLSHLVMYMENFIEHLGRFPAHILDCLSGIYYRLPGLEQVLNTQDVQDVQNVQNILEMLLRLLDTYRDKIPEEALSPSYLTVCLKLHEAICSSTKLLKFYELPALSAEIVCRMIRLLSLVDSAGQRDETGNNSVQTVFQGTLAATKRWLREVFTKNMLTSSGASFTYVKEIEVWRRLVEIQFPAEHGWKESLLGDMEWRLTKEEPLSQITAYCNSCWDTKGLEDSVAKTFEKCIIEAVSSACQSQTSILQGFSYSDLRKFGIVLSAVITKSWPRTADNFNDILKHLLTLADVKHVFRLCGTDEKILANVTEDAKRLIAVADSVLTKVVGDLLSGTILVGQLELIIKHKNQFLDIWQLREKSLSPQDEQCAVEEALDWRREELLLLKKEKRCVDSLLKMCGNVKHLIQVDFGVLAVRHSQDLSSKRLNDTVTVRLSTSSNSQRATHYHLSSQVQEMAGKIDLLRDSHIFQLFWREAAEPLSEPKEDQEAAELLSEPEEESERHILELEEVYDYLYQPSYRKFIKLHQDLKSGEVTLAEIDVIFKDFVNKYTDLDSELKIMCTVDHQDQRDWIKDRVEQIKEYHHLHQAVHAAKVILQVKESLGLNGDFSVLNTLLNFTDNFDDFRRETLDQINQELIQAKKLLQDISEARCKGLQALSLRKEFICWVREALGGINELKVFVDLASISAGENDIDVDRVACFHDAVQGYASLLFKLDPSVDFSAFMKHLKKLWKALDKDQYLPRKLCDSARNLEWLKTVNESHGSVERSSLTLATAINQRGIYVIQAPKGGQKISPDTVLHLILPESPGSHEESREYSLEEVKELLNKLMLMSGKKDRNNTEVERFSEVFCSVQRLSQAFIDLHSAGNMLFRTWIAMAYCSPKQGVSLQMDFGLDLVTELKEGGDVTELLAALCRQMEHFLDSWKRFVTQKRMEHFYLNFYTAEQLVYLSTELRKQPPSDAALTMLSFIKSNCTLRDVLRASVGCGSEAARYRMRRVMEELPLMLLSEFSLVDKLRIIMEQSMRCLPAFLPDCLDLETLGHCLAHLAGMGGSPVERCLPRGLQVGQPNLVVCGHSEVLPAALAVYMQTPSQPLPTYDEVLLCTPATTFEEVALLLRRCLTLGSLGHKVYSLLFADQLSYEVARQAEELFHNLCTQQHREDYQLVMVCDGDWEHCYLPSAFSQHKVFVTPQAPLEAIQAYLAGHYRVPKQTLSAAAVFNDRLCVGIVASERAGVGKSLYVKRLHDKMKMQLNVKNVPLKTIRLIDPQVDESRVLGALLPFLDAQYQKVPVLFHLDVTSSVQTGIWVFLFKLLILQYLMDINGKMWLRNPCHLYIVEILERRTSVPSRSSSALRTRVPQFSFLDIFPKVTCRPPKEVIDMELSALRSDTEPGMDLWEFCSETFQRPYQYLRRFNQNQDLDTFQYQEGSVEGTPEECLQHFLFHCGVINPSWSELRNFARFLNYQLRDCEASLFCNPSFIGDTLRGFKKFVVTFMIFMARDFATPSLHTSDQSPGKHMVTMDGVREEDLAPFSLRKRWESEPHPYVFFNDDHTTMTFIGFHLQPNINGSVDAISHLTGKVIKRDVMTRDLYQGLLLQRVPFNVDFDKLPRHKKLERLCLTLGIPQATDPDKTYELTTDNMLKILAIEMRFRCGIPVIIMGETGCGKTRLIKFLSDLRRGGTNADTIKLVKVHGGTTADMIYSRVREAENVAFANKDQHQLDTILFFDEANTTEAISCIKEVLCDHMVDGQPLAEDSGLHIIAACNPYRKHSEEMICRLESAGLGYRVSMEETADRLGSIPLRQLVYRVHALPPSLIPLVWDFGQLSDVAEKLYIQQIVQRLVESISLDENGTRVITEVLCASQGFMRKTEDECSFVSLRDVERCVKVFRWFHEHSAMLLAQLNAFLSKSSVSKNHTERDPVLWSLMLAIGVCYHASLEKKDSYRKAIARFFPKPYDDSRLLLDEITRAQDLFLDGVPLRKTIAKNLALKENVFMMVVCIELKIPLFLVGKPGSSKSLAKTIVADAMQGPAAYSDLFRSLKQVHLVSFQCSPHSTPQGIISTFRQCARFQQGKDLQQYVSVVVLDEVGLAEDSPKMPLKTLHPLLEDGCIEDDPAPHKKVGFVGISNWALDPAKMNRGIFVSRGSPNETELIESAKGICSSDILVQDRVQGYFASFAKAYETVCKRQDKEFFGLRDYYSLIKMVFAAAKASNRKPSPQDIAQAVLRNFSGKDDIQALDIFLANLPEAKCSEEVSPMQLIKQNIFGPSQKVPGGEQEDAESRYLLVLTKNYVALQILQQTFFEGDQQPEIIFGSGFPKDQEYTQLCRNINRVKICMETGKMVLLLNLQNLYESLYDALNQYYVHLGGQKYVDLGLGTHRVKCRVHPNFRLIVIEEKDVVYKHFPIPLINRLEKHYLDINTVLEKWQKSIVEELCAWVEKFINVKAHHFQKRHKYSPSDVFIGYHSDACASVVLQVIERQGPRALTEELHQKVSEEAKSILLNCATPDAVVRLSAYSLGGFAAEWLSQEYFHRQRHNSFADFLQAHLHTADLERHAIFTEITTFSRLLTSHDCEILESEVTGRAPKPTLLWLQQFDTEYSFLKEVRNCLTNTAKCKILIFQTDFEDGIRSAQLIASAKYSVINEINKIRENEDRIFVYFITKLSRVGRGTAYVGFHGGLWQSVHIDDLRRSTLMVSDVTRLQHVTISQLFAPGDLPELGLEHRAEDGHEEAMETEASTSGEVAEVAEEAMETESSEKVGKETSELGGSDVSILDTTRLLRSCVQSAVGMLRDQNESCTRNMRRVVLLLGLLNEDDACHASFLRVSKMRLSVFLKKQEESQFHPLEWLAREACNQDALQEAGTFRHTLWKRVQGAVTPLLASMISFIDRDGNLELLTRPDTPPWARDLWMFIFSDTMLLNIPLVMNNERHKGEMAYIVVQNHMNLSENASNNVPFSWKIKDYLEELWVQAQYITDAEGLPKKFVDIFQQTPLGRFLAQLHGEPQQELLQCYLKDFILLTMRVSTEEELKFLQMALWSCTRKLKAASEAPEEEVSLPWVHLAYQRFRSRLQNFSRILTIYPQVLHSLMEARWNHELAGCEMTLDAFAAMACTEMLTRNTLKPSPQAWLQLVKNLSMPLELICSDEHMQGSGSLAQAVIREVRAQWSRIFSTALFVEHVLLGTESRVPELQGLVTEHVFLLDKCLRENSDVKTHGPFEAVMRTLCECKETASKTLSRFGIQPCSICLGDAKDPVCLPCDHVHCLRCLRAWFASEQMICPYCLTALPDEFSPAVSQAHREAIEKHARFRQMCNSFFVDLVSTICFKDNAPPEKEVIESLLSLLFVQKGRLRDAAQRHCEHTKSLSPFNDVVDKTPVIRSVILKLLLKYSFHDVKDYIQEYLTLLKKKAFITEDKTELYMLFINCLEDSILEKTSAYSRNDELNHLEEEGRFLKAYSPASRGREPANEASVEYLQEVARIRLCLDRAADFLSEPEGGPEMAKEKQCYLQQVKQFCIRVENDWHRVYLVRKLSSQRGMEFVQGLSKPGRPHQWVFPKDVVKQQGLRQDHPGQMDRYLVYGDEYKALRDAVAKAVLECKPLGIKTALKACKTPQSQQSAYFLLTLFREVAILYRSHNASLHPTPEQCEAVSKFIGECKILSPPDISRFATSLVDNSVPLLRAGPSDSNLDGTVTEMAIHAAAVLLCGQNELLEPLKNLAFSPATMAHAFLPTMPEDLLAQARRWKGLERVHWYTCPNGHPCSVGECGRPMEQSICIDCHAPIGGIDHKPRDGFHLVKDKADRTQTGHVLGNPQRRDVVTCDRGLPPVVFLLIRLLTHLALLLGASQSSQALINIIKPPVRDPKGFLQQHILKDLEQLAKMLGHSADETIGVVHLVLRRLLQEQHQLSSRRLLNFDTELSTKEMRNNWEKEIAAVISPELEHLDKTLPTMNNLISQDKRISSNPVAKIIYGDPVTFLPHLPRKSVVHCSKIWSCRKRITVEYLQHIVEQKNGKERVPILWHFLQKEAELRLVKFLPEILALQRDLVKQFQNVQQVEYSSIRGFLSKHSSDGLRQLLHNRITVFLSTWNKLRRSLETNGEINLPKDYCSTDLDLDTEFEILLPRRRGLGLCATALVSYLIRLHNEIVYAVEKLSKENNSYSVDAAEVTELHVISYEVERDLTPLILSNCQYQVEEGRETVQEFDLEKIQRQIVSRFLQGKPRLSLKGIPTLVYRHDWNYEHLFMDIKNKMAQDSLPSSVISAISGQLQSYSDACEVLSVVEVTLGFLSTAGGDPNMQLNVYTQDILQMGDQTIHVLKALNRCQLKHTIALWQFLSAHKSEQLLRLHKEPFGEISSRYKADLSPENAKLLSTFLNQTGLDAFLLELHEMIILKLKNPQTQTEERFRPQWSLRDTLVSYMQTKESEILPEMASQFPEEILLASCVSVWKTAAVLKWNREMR", "assay": "cryo-EM structure; RNF213 (around 2 μM) mixed with a fivefold molar excess of IpaH1.4/2.5 (10 μM), incubated on ice for 30 min, vitrified on all-gold grids", "conditions": "both partners purified", "data": [{"binder": "IpaH1.4 (untagged, recombinant) (enzyme, IpaH1.4, secreted E3 ubiquitin ligase effector of Shigella flexneri; open reading frame cloned into pETM-30; only the LRR domain is resolved in the map; also called WT IpaH1.4; not shown: 6xHis, N-terminal, cleaved; GST, N-terminal, cleaved) MIKSTNIQAIGSGIMHQINNVYSLTPLSLPMELTPSCNEFYLKTWSEWEKNGTPGEQRNIAFNRLKICLQNQEAELNLSELDLKTLPDLPPQITTLEIRKNLLTHLPDLPPMLKVIHAQFNQLESLPALPETLEELNAGDNKIKELPFLPENLTHLRVHNNRLHILPLLPPELKLLVVSGNRLDSIPPFPDKLEGLALANNFIEQLPELPFSMNRAVLMNNNLTTLPESVLRLAQNAFVNVAGNPLSGHTMRTLQQITTGPDYSGPQIFFSMGNSATISAPEHSLADAVTAWFPENKQSDVSQIWHAFEHEEHANTFSAFLDRLSDTVSARNTSGFREQVAAWLEKLSASAELRQQSFAVAADATESCEDRVALTWNNLRKTLLVHQASEGLFDNDTGALLSLGREMFRLEILEDIARDKVRTLHFVDEIEVYLAFQTMLAEKLQLSTAVKEMRFYGVSGVTANDLRTAEAMVRSREENEFTDWFSLWGPWHAVLKRTEADRWAQAEEQKYEMLENEYSQRVADRLKASGLSGDADAEREAGAQVMRETEQQIYRQLTDEVLALRLSENGSNHIA", "values": [{"measurement": "binding result", "result": "binds"}]}]}
